In the test the target is RSV A2 바이러스의 F 단백질 (Respiratory Syncytial Virus (RSV), strain A2) (UniProt P03420). Briefly: cell-based or functional assay.
Sequence of UniProt P03420 (P03420 26-574): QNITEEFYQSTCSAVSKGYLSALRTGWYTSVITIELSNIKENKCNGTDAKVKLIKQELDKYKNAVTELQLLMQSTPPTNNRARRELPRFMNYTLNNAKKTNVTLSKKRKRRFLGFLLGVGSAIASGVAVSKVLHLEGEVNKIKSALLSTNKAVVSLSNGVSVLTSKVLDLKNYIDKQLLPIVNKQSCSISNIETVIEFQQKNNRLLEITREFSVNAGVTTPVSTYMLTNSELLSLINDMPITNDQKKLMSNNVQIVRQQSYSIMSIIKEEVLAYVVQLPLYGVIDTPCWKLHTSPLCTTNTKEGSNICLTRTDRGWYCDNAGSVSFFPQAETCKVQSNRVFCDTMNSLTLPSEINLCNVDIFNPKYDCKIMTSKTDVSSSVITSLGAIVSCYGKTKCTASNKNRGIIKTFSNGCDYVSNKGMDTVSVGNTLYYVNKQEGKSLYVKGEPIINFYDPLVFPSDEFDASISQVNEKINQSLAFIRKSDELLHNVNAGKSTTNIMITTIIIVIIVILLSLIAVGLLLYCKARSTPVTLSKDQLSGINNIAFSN
Regarding AM16 (antibody), the IC50, RSV A2 neutralisation on HEp2 cells (standard TCID50 culture assay) was 78.7 ng/㎖.

AM23 (antibody) registered an IC50, RSV A2 neutralisation on HEp2 cells (standard TCID50 culture assay) of 4.18 ng/㎖.

In turn, D25 (antibody) displayed an IC50, RSV A2 neutralisation on HEp2 cells (standard TCID50 culture assay) of 1.28 ng/㎖.

팔리비주마브(Palivizumab) (antibody): the IC50, RSV A2 neutralisation on HEp2 cells (standard TCID50 culture assay) amounted to 152 ng/㎖.

For the origin of these results see KR20120084755A.
